# Patent US20110300138A1 (published 2011)
# Where two headings read alike, the source gives them in different places.
# Legend:
# Experiment in all cases: cell-based or functional assay
# [1] = target: TSHR with Arg255 mutated to Asp expressed in CHO cells (human) (UniProt P16473)
# [2] = target: TSHR with Ile60 mutated to Ala, expressed in CHO cells (human) (UniProt P16473)
# [3] = target: TSHR with Thr257 mutated to Ala (human) (UniProt P16473)
# [4] = target: TSHR with Tyr185 mutated to Ala, expressed in CHO cells (human) (UniProt P16473)
# [5] = target: TSHR with Glu178 mutated to Ala expressed in CHO cells (human) (UniProt P16473)
# [6] = target: TSHR with Glu251 mutated to Ala (human) (UniProt P16473)
# [7] = target: TSHR with Arg255 mutated to Ala (human) (UniProt P16473)
# [8] = target: TSHR with Glu61 mutated to Ala, expressed in CHO cells (human) (UniProt P16473)
substance,measurement,setting,value
TSH (ligand),"Mutated/Wild type (%) of cyclic AMP produced, TSH 0.3 ng/mL, Experiment 1",[1],123%
same,"Mutated/Wild type (%) of cyclic AMP produced, TSH 0.3 ng/mL, Experiment 2",[1],78%
same,"Mutated/Wild type (%) of cyclic AMP produced, TSH 0.3 ng/mL, Experiment 3",[1],75%
same,"Mutated/Wild type (%) of cyclic AMP produced, TSH 1 ng/mL, Experiment 1",[1],114%
same,"Mutated/Wild type (%) of cyclic AMP produced, TSH 1 ng/mL, Experiment 2",[1],76%
same,"Mutated/Wild type (%) of cyclic AMP produced, TSH 1 ng/mL, Experiment 3",[1],80%
same,Mutated/wild type (%) of cyclic AMP produced; TSH 3 ng/mL; Experiment 1,[1],94%
same,Mutated/wild type (%) of cyclic AMP produced; TSH 3 ng/mL; Experiment 2,[1],90%
same,"% inhibition of TSH stimulation; TSH (2), run at the end of assay; Experiment 1",[2],12%
same,"% inhibition of TSH stimulation; TSH (2), run at the end of assay; Experiment 2",[2],13%
same,"Mutated/Wild type (%) of cyclic AMP produced, TSH 0.01 ng/mL",[2],358%
same,"Mutated/Wild type (%) of cyclic AMP produced, TSH 0.03 ng/mL",[2],178%
same,"Mutated/Wild type (%) of cyclic AMP produced, TSH 0.1 ng/mL",[2],201%
same,"Mutated/Wild type (%) of cyclic AMP produced, TSH 0.3 ng/mL",[2],96%
same,"Mutated/Wild type (%) of cyclic AMP produced, TSH 1 ng/mL",[2],77%
same,Mutated/wild type (%) of cyclic AMP produced; TSH 3 ng/mL,[2],83%
same,Mutated/wild type (%) of cyclic AMP produced; TSH 3 ng/mL; Experiment 1,[2],57%
same,Mutated/wild type (%) of cyclic AMP produced; TSH 3 ng/mL; Experiment 2,[2],81%
same,"Mutated/wild type (%) of cyclic AMP produced; TSH (2) 3 ng/mL, run at the end of assay; Experiment 1",[2],54%
same,"Mutated/wild type (%) of cyclic AMP produced; TSH (2) 3 ng/mL, run at the end of assay; Experiment 2",[2],69%
same,"Mutated/Wild type (%) of cyclic AMP produced, TSH 0.01 ng/mL",[3],90%
same,"Mutated/Wild type (%) of cyclic AMP produced, TSH 0.03 ng/mL",[3],93%
same,"Mutated/Wild type (%) of cyclic AMP produced, TSH 0.1 ng/mL",[3],92%
same,"Mutated/Wild type (%) of cyclic AMP produced, TSH 0.3 ng/mL",[3],105%
same,"Mutated/Wild type (%) of cyclic AMP produced, TSH 1 ng/mL",[3],94%
same,Mutated/wild type (%) of cyclic AMP produced; TSH 3 ng/mL,[3],86%
same,"Cyclic AMP produced (pmol/mL), mutated TSHR, TSH 0.01 ng/mL, Experiment 1",[4],3.33 pmol/mL
same,"Cyclic AMP produced (pmol/mL), mutated TSHR, TSH 0.01 ng/mL, Experiment 2",[4],3.82 pmol/mL
same,"Cyclic AMP produced (pmol/mL), mutated TSHR, TSH 0.03 ng/mL, Experiment 1",[4],3.85 pmol/mL
same,"Cyclic AMP produced (pmol/mL), mutated TSHR, TSH 0.03 ng/mL, Experiment 2",[4],5.6 pmol/mL
same,"Cyclic AMP produced (pmol/mL), mutated TSHR, TSH 0.1 ng/mL, Experiment 1",[4],8.36 pmol/mL
same,"Cyclic AMP produced (pmol/mL), mutated TSHR, TSH 0.1 ng/mL, Experiment 2",[4],12.3 pmol/mL
same,"Cyclic AMP produced (pmol/mL), mutated TSHR, TSH 0.3 ng/mL, Experiment 1",[4],21.1 pmol/mL
same,"Cyclic AMP produced (pmol/mL), mutated TSHR, TSH 0.3 ng/mL, Experiment 2",[4],30.5 pmol/mL
same,"Cyclic AMP produced (pmol/mL), mutated TSHR, TSH 1 ng/mL, Experiment 1",[4],37.8 pmol/mL
same,"Cyclic AMP produced (pmol/mL), mutated TSHR, TSH 1 ng/mL, Experiment 2",[4],50.6 pmol/mL
same,"Cyclic AMP produced (pmol/mL), mutated TSHR, TSH 3 ng/mL, Experiment 1",[4],42.9 pmol/mL
same,"Cyclic AMP produced (pmol/mL), mutated TSHR, TSH 3 ng/mL, Experiment 2",[4],56.3 pmol/mL
same,"Mutated/Wild type (%), TSH 0.01 ng/mL, Experiment 1",[4],128%
same,"Mutated/Wild type (%), TSH 0.01 ng/mL, Experiment 2",[4],98%
same,"Mutated/Wild type (%), TSH 0.03 ng/mL, Experiment 1",[4],90%
same,"Mutated/Wild type (%), TSH 0.03 ng/mL, Experiment 2",[4],101%
same,"Mutated/Wild type (%), TSH 0.1 ng/mL, Experiment 1",[4],76%
same,"Mutated/Wild type (%), TSH 0.1 ng/mL, Experiment 2",[4],93%
same,"Mutated/Wild type (%), TSH 0.3 ng/mL, Experiment 1",[4],65%
same,"Mutated/Wild type (%), TSH 0.3 ng/mL, Experiment 2",[4],86%
same,"Mutated/Wild type (%), TSH 1 ng/mL, Experiment 1",[4],45%
same,"Mutated/Wild type (%), TSH 1 ng/mL, Experiment 2",[4],62%
same,"Mutated/Wild type (%), TSH 3 ng/mL, Experiment 1",[4],35%
same,"Mutated/Wild type (%) of cyclic AMP produced, TSH 0.01 ng/mL",[5],467%
same,"Mutated/Wild type (%) of cyclic AMP produced, TSH 0.03 ng/mL",[5],240%
same,"Mutated/Wild type (%) of cyclic AMP produced, TSH 0.1 ng/mL",[5],115%
same,"Mutated/Wild type (%) of cyclic AMP produced, TSH 0.3 ng/mL",[5],71%
same,"Mutated/Wild type (%) of cyclic AMP produced, TSH 1 ng/mL",[5],54%
same,"Cyclic AMP produced (mean of duplicate), TSH 3 ng/mL",[6],71.7 pmol/mL
same,"Mutated/Wild type (%) of cyclic AMP produced, TSH 0.01 ng/mL",[6],243%
same,"Mutated/Wild type (%) of cyclic AMP produced, TSH 0.03 ng/mL",[6],224%
same,"Mutated/Wild type (%) of cyclic AMP produced, TSH 0.1 ng/mL",[6],115%
same,"Mutated/Wild type (%) of cyclic AMP produced, TSH 0.3 ng/mL",[6],67%
same,"Mutated/Wild type (%) of cyclic AMP produced, TSH 1 ng/mL",[6],69%
same,Mutated/wild type (%) of cyclic AMP produced; TSH 3 ng/mL,[6],66%
same,"Mutated/Wild type (%) of cyclic AMP produced, TSH 0.01 ng/mL",[7],161%
same,"Mutated/Wild type (%) of cyclic AMP produced, TSH 0.03 ng/mL",[7],141%
same,"Mutated/Wild type (%) of cyclic AMP produced, TSH 0.1 ng/mL",[7],126%
same,"Mutated/Wild type (%) of cyclic AMP produced, TSH 0.3 ng/mL",[7],101%
same,"Mutated/Wild type (%) of cyclic AMP produced, TSH 1 ng/mL",[7],90%
same,Mutated/wild type (%) of cyclic AMP produced; TSH 3 ng/mL,[7],91%
same,"% inhibition of TSH stimulation; TSH (2), run at the end of assay",[8],17%
same,"Mutated/Wild type (%) of cyclic AMP produced, TSH 0.01 ng/mL",[8],470%
same,"Mutated/Wild type (%) of cyclic AMP produced, TSH 0.03 ng/mL",[8],369%
same,"Mutated/Wild type (%) of cyclic AMP produced, TSH 0.1 ng/mL",[8],271%
same,"Mutated/Wild type (%) of cyclic AMP produced, TSH 0.3 ng/mL",[8],188%
same,"Mutated/Wild type (%) of cyclic AMP produced, TSH 1 ng/mL",[8],129%
same,Mutated/wild type (%) of cyclic AMP produced; TSH 3 ng/mL,[8],110%
same,"Mutated/wild type (%) of cyclic AMP produced; TSH (2) 3 ng/mL, run at the end of assay",[8],51%
same,Mutated/wild type (%) of cyclic AMP produced; TSH 3 ng/mL,[8]; record 2,67%
